Assay results taken from US20250075190A1, “DE NOVO DESIGNED LUCIFERASE” (UNIVERSITY OF WASHINGTON, priority 2022, published 2025).

What was measured:
[1] = substrate: Oc1ccc(Cc2nc3c(Cc4ccccc4)nc(-c4ccc(O)cc4)cn3c2O)cc1; experiment: Michaelis-Menten kinetics of native Renilla luciferase (RLuc) with CTZ; assay type: biochemical, Renilla reniformis; settings: other: substrate CTZ; Table 3; pH 8.0
Excerpt: (§1) Synthetic genes and oligonucleotides were purchased from Integrated DNA Technologies or GenScript. The synthetic gene was inserted between NdeI and XhoI sites of a pET29b+ vector, containing an N-terminal hexahistidine tag followed by a TEV protease cleavage site and a C-terminal stop codon. Restriction endonucleases, Q5 PCR polymerase, and T4 ligase were purchased from NEB. Plasmid DNA, PCR products, or digested fragments were purified by Qiagen DNA purification kits. DNA sequences were analyzed by Genewiz. Coelenterazine (CTZ) was purchased from Gold Biotechnology. Diphenylterazine (DTZ), pyridyl diphenylterazine (8pyDTZ), and Furimazine (FRZ) were purchased from MedChemExpress. […] DNA and protein concentrations were determined by a NanoDrop™ small-volume 8 channel UV/vis spectrometer. […] All luminescence measurements were acquired by a Biotek Synergy Neo2T™ Multi-Mode Plate Reader. To convert relative arbitrary unit (RLU) to the number of photons, Neo2 plate reader was calibrated by determining the chemiluminescence of luminol with known quantum yield in the presence of horseradish peroxidase and hydrogen peroxide in K2CO3 aqueous solution as previously described^45. SDS PAGE and luminescence images were captured by a Bio-Rad ChemiDocT™ XRS+. Images were analyzed using the Fiji image analysis software.
For Michaelis-Menten kinetics measurements, 25 μL of serial diluted DTZ substrate in Tris pH 8.0 buffer was added into the wells of a white 96-well half-area microplate containing 25 μL of purified luciferases (final enzyme concentration: 100 nM; substrate concentration: 0.78 to 50 μM). […] The luminescence signals were monitored until the reactions were completed (0.1 s integration and measurements were taken every 5 s for a total of 40 min). […] In vitro luminescence activity measurements of LuxSit-i expressing HEK293T or HeLa cells were done similarly as 15,000 intact cells or lysates were used in the assay instead of purified luciferases. […]

[2] = Luciferase activities of re-designed sequences based on LuxSit-i (Table 1); assay type: biochemical; settings: LuxSit-f and re-designed sequences based on LuxSit-i (Table 1)
Excerpt: In another embodiment, the proteins comprise an amino acid sequence at least 30%, 35%, 40%, 45%, 50%, 55%, 60%, 65%, 70%, 75%, 80%, 85%, 90%, 91%, 92%, 93%, 94%, 95%, 96%, 97%, 98%, 99%, or 100% identical to the amino acid selected from the group consisting of SEQ ID NO:1-181, as shown in Table 1. SEQ ID NO:5-181 in Table 1 are re-designed amino acid sequences based on LuxSit-i (SEQ ID NO:2), with their luciferase activities shown.

[3] = Circular dichroism spectra and thermal denaturation; assay type: physicochemical; settings: 220 nm, 25° C. to 95° C.
Excerpt: as §1
Purified protein samples were prepared at 15 μM in pH 7.4 10 mM phosphate buffer. Spectra from 190 nm to 260 nm were recorded at 25° C., 50° C., 75° C., 95° C., and after cooling back to 25° C. Thermal denaturation was monitored at 220 nm from 25° C. to 95° C. […]

[4] = for Relative emission intensity: integrated luminescence intensity over the first 20 min, normalized to LuxSit, 25 μM DTZ in Tris pH 8.0 buffer; for increase of activity over LuxSit: DTZ
Description: Each colony was expressed individually in each well of 96-well plates (1 mL culture) and purified accordingly (see Methods). (a) Individual luminescence activity of each selected mutant was plotted and compared to the parent LuxSit. Luminescence activities were measured in the presence of 25 μM DTZ. Luminescence activity (RLU) was shown as the integrated signal over the first 15 min. Statistical analysis of the amino acid frequency versus the luciferase activity at residue (b) 60, (c) 96, and (d) 110.
The cells were plated on 150 mm×15 mm LB agar plates supplemented with carbenicillin and L-arabinose, incubated at 37° C. overnight, and left at 4° C. for another 24 h. As described in the screening of luciferase libraries, colony-based screening by spraying DTZ solution was used to identify active colonies. […] The plates were shaken at 37 C overnight (˜16-18 h) on 96-well plate shakers at 1,100 rpm. Cells were pelleted by centrifugation at 4,000 g for 15 min in a tabletop centrifuge. Media was discarded and the cell pellets were resuspended in 0.2 mL BugBuster HT Protein Extraction buffer. The plates were transferred back to 96-well plate shakers and incubated at 1,100 rpm for an additional 30 min. Cellular debris was pelleted again by centrifugation at 4,000 g for 15 min, soluble lysates were transferred to a new semi-deep 96-well plate, and incubated with 10 μL of magnetic Ni-NTA beads for 30 min to allow binding. The magnetic extractor was used to first transfer the beads from the binding plates to wash plates with 200 μL IMAC wash buffer in each well, and then transfer the beads to elusion plates containing 30 μL IMAC elution buffer in each well. The concentrations of all proteins in each well were determined by the Bradford assay directly. The elution solution in each well was used to make a 25 μL protein solution at indicated concentration and mixed with 25 μL of 50 μM DTZ PBS solution. The luminescence signals were acquired over a course of 15 min while the actual point mutation was identified by sequencing.

[5] = Luminescent quantum yield of LuxSit variants; assay type: biochemical; settings: consuming 125 pmol of DTZ in PBS with 50 nM recombinant luciferase; estimated relative to reported quantum yield of RLuc; mean ± s.d., n = 3
Description: FIG. 10. Additional characterization of LuxSit variants. (a) Normalized emission kinetics of 15,000 intact HeLa cells expressing LuxSit-i, 100 nM purified LuxSit-i, or 100 nM purified LuxSit-f in the presence of 50 μM DTZ. The more extended emission kinetics in HeLa cells is likely due to the diffusion rate of DTZ across cell membranes. […] (c) Luminescent quantum yield was estimated from the integrated luminescence signal until completely converting 125 pmol substrates to photons in the presence of 50 nM corresponding luciferase (see Methods). All data points were plotted as the average of triplicate measurements.
For Michaelis-Menten kinetics measurements, 25 μL of serial diluted DTZ substrate in Tris pH 8.0 buffer was added into the wells of a white 96-well half-area microplate containing 25 μL of purified luciferases (final enzyme concentration: 100 nM; substrate concentration: 0.78 to 50 μM). […] The luminescence signals were monitored until the reactions were completed (0.1 s integration and measurements were taken every 5 s for a total of 40 min). […] In vitro luminescence activity measurements of LuxSit-i expressing HEK293T or HeLa cells were done similarly as 15,000 intact cells or lysates were used in the assay instead of purified luciferases. […] Data were shown as the total luminescence signal over the first 10 min. […]

[6] = Michaelis-Menten kinetics measurements of purified luciferases; assay type: biochemical; settings: DTZ; mean (95% CI), n = 3
Description: For Michaelis-Menten kinetics measurements, 25 μL of serial diluted DTZ substrate in Tris pH 8.0 buffer was added into the wells of a white 96-well half-area microplate containing 25 μL of purified luciferases (final enzyme concentration: 100 nM; substrate concentration: 0.78 to 50 μM). Measurements were taken every 1 min (0.1 s integration and 10 s shaking between each interval) for a total of 20 min. Initial velocities were estimated as the average of the light intensities from the first three data points to fit the Michaelis-Menten equation. All relative arbitrary unit (RLU) per second values were converted to photon/s by the luminol-H2O2—HRP calibration method^45. Following the equation: Imax=LQY×kcat×[E], Imax is the maximal photon flux (photon s^−1), [E] is the total enzyme concentration, and V ax is the maximum photon flux per molecule (photon s^−1 molecule^−1) from the fitting of the Michaelis-Menten equation. To determine the luminescent quantum yields, 25 μL of 5 μM individual substrate in PBS was injected into 25 μL PBS containing 100 nM corresponding luciferase. DTZ was used for all LuxSit variants while CTZ was used as the substrate of native RLuc. The luminescence signals were monitored until the reactions were completed (0.1 s integration and measurements were taken every 5 s for a total of 40 min). […] To record emission spectra, 25 μL of 50 μM DTZ in PBS were injected into 25 μL of 200 nM pure luciferases and the emission spectra were collected with 0.1 s integration and 2 nm increments from 300 to 700 num. In vitro luminescence activity measurements of LuxSit-i expressing HEK293T or HeLa cells were done similarly as 15,000 intact cells or lysates were used in the assay instead of purified luciferases. To evaluate the substrate specificity, 25 μL of 50 μM substrate analogs in PBS were added to 25 μL of 200 nM indicated luciferases, and the signals were recorded over 20 min. Data were shown as the total luminescence signal over the first 10 min. We normalized the data by setting the highest emission substrate at 100%.

Row | Molecule | Activity [2] | thermal stability (CD melting) [3] | Relative emission intensity [4] | increase of activity over LuxSit [4] [fold] | other results
1 | native Renilla reniformis luciferase (RLuc) (Renilla reniformis) (protein, host and tag of RLuc not clearly stated) MTSKVYDPEQRKRMITGPQWWARCKQMNVLDSFINYYDSEKHAENAVIFLHGNAASSYLWRHVVPHIEPVARCIIPDLIGMGKSGKSGNGSYRLLDHYKYLTAWFELLNLPKKIIFVGHDWGACLAFHYSYEHQDKIKAIVHAESVVDVIESWDEWPDIEEDIALIKSEEGEKMVLENNFFVETMLPSKIMRKLEPEEFAAYLEPFKEKGEVRRPTLSWPREIPLVKGGKPDVVQIVRNYNAYLRASDDLPKMFIESDPGFFSNAIVEGAKKFPNTEFVKVKGLHFSQEDAPDEMGKYIKSFVERVLKNEQ | – | – | – | – | Km [1]: 1.5 µM; kcat [1]: 4.9 s⁻¹; kcat/Km [1]: 3.3e+06 M⁻¹ s⁻¹
2 | LuxSit: de novo designed DTZ luciferase, 117 residues, SEQ ID NO:1 (protein, VARIANT 1 optionally absent; VARIANT 118 optionally absent) MSEEQIRQFLRRFYEALDSGDADTAASLFHPGVTIHLWDGVTFTSREEFREWFERLFSTRKDAQREIKSLEVRGDTVEVHVQLHATHNGQKHTVDATHHWHFRGNRVTEMRVHINPTG | 75.3 | not fully unfolded at 95 °C | 1 | – | –
3 | LuxSit-f: LuxSit variant A96M/M110V, SEQ ID NO:3, strong initial flash emission (protein, VARIANT 1 optionally absent; VARIANT 118 optionally absent) MSEEQIRQFLRRFYEALDSGDADTAASLFHPGVTIHLWDGVTFTSREEFREWFERLFSTRKDAQREIKSLEVRGDTVEVHVQLHATHNGQKHTVDMTHHWHFRGNRVTEVRVHINPTG | 534.5 | thermostable | 60.9 | – | LQY (luminescent quantum yield) [5]: 10.9 ± 1.5%
4 | A96M: LuxSit mutant A96M (protein, VARIANT 1 optionally absent; VARIANT 118 optionally absent) MSEEQIRQFLRRFYEALDSGDADTAASLFHPGVTIHLWDGVTFTSREEFREWFERLFSTRKDAQREIKSLEVRGDTVEVHVQLHATHNGQKHTVDMTHHWHFRGNRVTEMRVHINPTG | – | – | 16.4 | 16 | –
5 | M110V: LuxSit mutant M110V (protein, VARIANT 1 optionally absent; VARIANT 118 optionally absent) MSEEQIRQFLRRFYEALDSGDADTAASLFHPGVTIHLWDGVTFTSREEFREWFERLFSTRKDAQREIKSLEVRGDTVEVHVQLHATHNGQKHTVDATHHWHFRGNRVTEVRVHINPTG | – | – | 19.3 | 19 | Km [6]: 30.3 µM; Vmax [6]: 7.1(6.2-8.4) ×10^−2 photon s^−1 molecule^−1
